Assay results taken from patent publication US20060088524A1 (BOARD OF TRUSTEES OF THE UNIVERSITY OF ILLINOIS, published 2006).

T1: recombinant human tissue factor (rTF), membrane-anchored, HPC4-tagged, cytoplasmic domain truncated
T1 chain: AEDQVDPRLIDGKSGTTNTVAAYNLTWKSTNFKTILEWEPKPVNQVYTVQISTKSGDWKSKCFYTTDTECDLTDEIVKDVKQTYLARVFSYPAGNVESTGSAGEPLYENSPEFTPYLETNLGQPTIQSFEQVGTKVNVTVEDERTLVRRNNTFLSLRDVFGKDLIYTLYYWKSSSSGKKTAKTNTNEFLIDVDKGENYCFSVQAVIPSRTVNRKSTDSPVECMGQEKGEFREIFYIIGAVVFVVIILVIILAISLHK

B1: coagulation factor VIIa (protein)
chain: ANAFLEELRPGSLERECKEEQCSFEEAREIFKDAERTKLFWISYSDGDQCASSPCQNGGSCKDQLQSYICFCLPAFEGRNCETHKDDQLICVNENGGCEQYCSDHTGTKRSCRCHEGYSLLADGVSCTPTVEYPCGKIPILEKRNASKPQGRIVGGKVCPKGECPWQVLLLVNGAQLCGGTLINTIWVVSAAHCFDKIKNWRNLIAVLGEHDLSEHDGDEQSRRVAQVIIPSTYVPGTTNHDIALLRLHQPVVLTDHVVPLCLPERTFSERTLAFVRFSLVSGWGQLLDRGATALELMVLNVPRLMTQDCLQQSRKVGDSPNITEYMFCAGYSDGSKDSCKGDSGGPHATHYRGTWYLTGIVSWGQGCATVGHFGVYTRVSQYIEWLQKLMRSEPRPGVLLRAPFP

Experiments:
[1] = molecular target: TF:VIIa complex (1:1 complex of rTF and factor VIIa on a phospholipid surface) (UniProt P08709)
[2] = molecular target: T1, recombinant human tissue factor (rTF), …

Molecule | Km for factor X activation; TF-Nanodiscs, 10% PS, 90% PC [1] [µM] | Km for factor X activation; TF-Nanodiscs, 20% PS, 80% PC [1] [µM] | Km for factor X activation; TF-Nanodiscs, 30% PS, 70% PC [1] [µM] | Km for factor X activation; TF-liposomes, 20% PS, 80% PC [1] [µM] | Km, app for factor X activation; rTF in PCPS vesicles [1] [µM] | Km, app for factor X activation; rTF-PCPS-nanoscale discs [1] [µM] | procoagulant activity (plasma clotting) of TF-containing nanoscale discs [2]
coagulation factor X | 0.132 | 0.0686 | 0.0452 | 0.0202 | 0.0202 | 0.0686 | 
B1 |  |  |  |  |  |  | the resultant discs exhibit strong procoagulant activity
